Test results: patent US20190077860A1 (EISAI R AND D MANAGEMENT, published 2019)
Residue numbers refer to the chain shown, from its start.

T1: human EphB4 extracellular region-SEAP-His protein (human, UniProt P54760 16-539)
T1 construct: extracellular domain; also called hEphB4-SEAP-His
T1 sequence (looked up): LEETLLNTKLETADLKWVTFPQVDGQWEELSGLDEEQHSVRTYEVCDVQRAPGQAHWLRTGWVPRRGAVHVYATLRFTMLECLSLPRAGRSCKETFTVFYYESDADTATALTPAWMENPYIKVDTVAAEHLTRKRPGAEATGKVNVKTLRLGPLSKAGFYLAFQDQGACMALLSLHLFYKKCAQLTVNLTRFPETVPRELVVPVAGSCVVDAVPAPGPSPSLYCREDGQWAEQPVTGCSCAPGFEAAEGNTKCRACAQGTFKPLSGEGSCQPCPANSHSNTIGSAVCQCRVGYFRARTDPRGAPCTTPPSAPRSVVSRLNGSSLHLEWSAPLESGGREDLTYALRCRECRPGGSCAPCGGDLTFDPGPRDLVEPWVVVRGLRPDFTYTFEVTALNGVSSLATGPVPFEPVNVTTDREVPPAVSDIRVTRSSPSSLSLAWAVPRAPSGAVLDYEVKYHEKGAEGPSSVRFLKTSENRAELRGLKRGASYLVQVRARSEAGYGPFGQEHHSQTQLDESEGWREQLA

T2: human EphA8 extracellular region-SEAP-His protein (human, UniProt P29322 28-542)
T2 construct: extracellular domain; also called hEphA8-SEAP-His
T2 sequence (looked up): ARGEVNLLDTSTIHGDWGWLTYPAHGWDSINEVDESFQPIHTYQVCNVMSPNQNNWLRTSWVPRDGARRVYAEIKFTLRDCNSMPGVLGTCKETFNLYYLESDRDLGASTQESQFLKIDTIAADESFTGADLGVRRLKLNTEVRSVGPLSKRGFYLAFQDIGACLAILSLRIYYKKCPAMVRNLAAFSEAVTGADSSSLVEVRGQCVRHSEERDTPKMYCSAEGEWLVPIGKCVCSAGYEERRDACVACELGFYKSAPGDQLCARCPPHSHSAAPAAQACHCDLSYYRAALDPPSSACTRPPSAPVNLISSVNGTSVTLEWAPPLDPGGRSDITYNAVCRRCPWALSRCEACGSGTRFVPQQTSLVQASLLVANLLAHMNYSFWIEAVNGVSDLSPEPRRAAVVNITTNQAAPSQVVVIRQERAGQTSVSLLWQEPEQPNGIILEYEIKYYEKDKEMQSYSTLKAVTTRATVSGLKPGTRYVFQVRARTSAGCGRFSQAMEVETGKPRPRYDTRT

T3: human EphA3 extracellular region-SEAP-His protein (human, UniProt P29320 21-541)
T3 construct: extracellular domain; also called hEphA3-SEAP-His
T3 sequence (looked up): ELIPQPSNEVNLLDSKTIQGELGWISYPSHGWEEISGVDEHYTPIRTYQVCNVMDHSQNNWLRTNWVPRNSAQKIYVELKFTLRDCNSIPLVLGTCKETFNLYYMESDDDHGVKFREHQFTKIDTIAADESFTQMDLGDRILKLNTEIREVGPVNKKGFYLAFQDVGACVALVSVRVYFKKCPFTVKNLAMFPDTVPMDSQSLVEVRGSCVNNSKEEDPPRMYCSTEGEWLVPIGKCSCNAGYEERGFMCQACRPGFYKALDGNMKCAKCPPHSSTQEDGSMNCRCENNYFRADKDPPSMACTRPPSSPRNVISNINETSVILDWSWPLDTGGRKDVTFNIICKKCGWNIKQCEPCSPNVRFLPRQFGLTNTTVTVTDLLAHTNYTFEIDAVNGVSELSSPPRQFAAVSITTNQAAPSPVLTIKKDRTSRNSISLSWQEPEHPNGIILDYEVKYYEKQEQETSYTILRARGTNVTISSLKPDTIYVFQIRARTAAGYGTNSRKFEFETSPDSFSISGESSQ

T4: human EphA7 extracellular region-SEAP-His protein (human, UniProt Q15375 28-555)
T4 construct: extracellular domain; also called hEphA7-SEAP-His
T4 sequence (looked up): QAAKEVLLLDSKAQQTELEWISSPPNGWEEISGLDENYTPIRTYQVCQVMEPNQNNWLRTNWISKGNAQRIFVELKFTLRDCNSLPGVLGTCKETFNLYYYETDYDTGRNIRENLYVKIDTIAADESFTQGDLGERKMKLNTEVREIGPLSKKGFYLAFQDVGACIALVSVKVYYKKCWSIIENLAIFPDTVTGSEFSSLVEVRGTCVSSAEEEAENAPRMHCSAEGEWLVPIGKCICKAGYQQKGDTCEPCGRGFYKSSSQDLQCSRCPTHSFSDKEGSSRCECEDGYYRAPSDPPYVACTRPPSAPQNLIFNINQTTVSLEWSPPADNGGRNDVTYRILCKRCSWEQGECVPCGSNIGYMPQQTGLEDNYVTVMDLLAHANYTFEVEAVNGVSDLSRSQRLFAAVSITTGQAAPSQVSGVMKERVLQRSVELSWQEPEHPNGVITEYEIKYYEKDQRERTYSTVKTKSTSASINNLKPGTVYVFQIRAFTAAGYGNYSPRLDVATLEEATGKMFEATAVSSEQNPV

B1: humanized antibody No. 73 (antibody, human IgG1, kappa)
heavy: QIQLVQSGSELKKPGASVKVSCKASGYTFTDYSMHWVRQAPGQGLKWMGWINTETGEPTYADDFKGRFVFSLDTSVSTAYLQISSLKAEDTAVYYCARIPLYYYGSRYWYFDVWGQGTTVTVSSASTKGPSVFPLAPSSKSTSGGTAALGCLVKDYFPEPVTVSWNSGALTSGVHTFPAVLQSSGLYSLSSVVTVPSSSLGTQTYICNVNHKPSNTKVDKRVEPKSCDKTHTCPPCPAPPAAAPSVFLFPPKPKDTLMISRTPEVTCVVVDVSHEDPEVQFNWYVDGVEVHNAKTKPREEQFNSTFRVVSVLTVVHQDWLNGKEYKCKVSNKGLPAPIEKTISKTKGQPREPQVYTLPPSREEMTKNQVSLTCLVKGFYPSDIAVEWESNGQPENNYKTTPPMLDSDGSFFLYSKLTVDKSRWQQGNVFSCSVMHEALHNHYTQKSLSLSPG
light: EIVMTQSPATLSVSPGERATLSCRASENIYRNLAWYQQKPGQSPRLLIYAATNLADGIPARFSGSGSGTEYTLTISSLQSEDFAVYYCQHFWGTPWTFGQGTKVEIKRTVAAPSVFIFPPSDEQLKSGTASVVCLLNNFYPREAKVQWKVDNALQSGNSQESVTEQDSKDSTYSLSSTLTLSKADYEKHKVYACEVTHQGLSSPVTKSFNRGEC
notes: human Ig kappa; also called L2-4/HK4
B2: humanized antibody No. 95 (antibody, human IgG1, kappa)
heavy: B1 heavy with I2V, K46E
light: B1 light
notes: human Ig kappa; also called L2-4/HK1
B3: humanized antibody No. 93 (antibody, human IgG1, kappa)
heavy: B1 heavy with I2V, K46E, D62Q, D63G, K65T
light: B1 light
notes: human Ig kappa; also called L2-4/HA1
B4: humanized antibody No. 96 (antibody, human IgG1, kappa)
heavy: B1 heavy with I2V
light: B1 light
notes: human Ig kappa; also called L2-4/HK2

biological target: T1, human EphB4 extracellular …; assay: ELISA

Binder | A450 as % of hEphA4-SEAP-His
B1 | 5.7%
B2 | 4.6%
B3 | 5%
B4 | 5.5%

biological target: T2, human EphA8 extracellular …; assay: ELISA

Binder | A450 as % of hEphA4-SEAP-His
B1 | 5.8%
B2 | 4.4%
B3 | 5%
B4 | 5.4%

biological target: T3, human EphA3 extracellular …; assay: ELISA

Binder | A450 as % of hEphA4-SEAP-His
B1 | 5.8%
B2 | 4.8%
B3 | 5.1%
B4 | 5.5%

biological target: T4, human EphA7 extracellular …; assay: ELISA

Binder | A450 as % of hEphA4-SEAP-His
B1 | 5.6%
B2 | 4.4%
B3 | 4.9%
B4 | 5.3%

biological target: T5, human EphA5 extracellular region-SEAP-His protein (human, UniProt P54756 25-573); assay: ELISA
T5 construct: extracellular domain; also called hEphA5-SEAP-His
T5 sequence (P54756 25-573): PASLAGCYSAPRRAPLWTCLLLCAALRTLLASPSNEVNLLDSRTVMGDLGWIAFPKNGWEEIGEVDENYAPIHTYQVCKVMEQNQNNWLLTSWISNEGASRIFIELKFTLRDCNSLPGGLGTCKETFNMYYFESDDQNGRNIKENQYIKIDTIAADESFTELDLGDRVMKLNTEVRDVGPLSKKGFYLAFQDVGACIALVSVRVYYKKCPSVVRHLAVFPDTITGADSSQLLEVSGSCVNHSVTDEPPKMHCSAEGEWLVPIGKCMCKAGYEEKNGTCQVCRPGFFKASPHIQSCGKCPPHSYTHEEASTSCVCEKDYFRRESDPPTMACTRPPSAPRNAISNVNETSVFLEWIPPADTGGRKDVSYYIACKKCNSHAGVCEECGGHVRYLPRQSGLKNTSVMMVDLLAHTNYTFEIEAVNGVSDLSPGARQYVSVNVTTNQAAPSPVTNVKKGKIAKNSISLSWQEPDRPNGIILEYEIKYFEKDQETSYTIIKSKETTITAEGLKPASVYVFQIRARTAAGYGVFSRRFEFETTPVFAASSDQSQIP

Binder | A450 as % of hEphA4-SEAP-His
B1 | 6%
B2 | 4.6%
B3 | 4.9%
B4 | 6%

biological target: T6, human EphA2 extracellular region-SEAP-His protein (human, UniProt P29317 24-537); assay: ELISA
T6 construct: extracellular domain; also called hEphA2-SEAP-His
T6 sequence (P29317 24-537): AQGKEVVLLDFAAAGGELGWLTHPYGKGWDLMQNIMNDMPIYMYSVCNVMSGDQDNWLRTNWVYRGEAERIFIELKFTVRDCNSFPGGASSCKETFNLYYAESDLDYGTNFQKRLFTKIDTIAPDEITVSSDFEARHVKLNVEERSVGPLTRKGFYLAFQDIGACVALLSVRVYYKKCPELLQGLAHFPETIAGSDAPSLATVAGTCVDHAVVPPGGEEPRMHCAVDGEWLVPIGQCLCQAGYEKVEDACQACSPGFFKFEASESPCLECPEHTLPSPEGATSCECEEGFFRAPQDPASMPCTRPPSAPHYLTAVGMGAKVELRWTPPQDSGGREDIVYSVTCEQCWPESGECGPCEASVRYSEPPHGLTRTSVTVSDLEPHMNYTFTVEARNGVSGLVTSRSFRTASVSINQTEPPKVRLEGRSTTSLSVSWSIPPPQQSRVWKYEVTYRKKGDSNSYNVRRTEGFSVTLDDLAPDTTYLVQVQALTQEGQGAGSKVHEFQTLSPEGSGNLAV

Binder | A450 as % of hEphA4-SEAP-His
B1 | 5.7%
B2 | 4.2%
B3 | 5%
B4 | 5.3%
